Reference: publication PMC2707214

Target: TolB construct MV37 (TolB Δ1–22) (E. coli) (UniProt P0A855)
Test: SPR

| Kd [µM] | Substance |
| --- | --- |
| 4.1 | TolAIII construct YZ48 (wild-type TolAIII) (domain or fragment) |
| 23.6 | TolAIII construct YZ74 (TolAIII Y352H,V407E) (domain or fragment) |
